Measured values reported in patent publication US20240192215A1 (E AND S HEALTHCARE, published 2024).

How the values were obtained:
Experiment in all cases: peptide microarray, anti-mouse IgG DyLight 650, MMC2 heatmap (Example 17)
[1] = target: T1, Peptide_058
T1 peptide: FFHSLSEKYSNVIFL
Procedure: (§1) 5, 1, 0.2, 0.04, 0.008 and 0.0016 μg/mL serial dilutions were incubated on a single multi-well microarray slide at 30° C. for 1 hour. The slide includes 21 individual mini-arrays (one mini-array per sample dilution).
(§2) DyLight 650 was used as a label. False-positive binding to a peptide was evaluated by performing one additional control incubation in which only a secondary antibody was applied on the same microarray slide. Before performing each step, the microarrays were washed with a washing buffer.
(§3) To visualize the obtained results and compare binding regions across individual cultures, as shown in FIGS. 21A to 21D, heatmap diagrams were calculated. In FIGS. 21A to 21D, the fluorescence intensity is expressed in a color-coded manner, white indicates no binding, and red indicates strong binding. For all evaluations, the MMC2-value of the average pixel fluorescence for each peptide was calculated.

[2] = target: T2, Peptide_089
T2 peptide: KCMPTFQFFKKGQKV
Procedure: as §1, §2, §3

[3] = target: T3, Peptide_006
T3 peptide: DVHSQHHHHHHHHVK
Procedure: as §1, §2, §3

[4] = target: T4, Peptide_065
T4 peptide: KYSNVIFLEVDVDDC
Procedure: as §1, §2, §3

[5] = target: T5, Peptide_030
T5 peptide: EALDAAGDKLVVVDF
Procedure: as §1, §2, §3

[6] = target: T6, Peptide_064
T6 peptide: EKYSNVIFLEVDVDD
Procedure: as §1, §2, §3

[7] = target: T7, Peptide_069
T7 peptide: VIFLEVDVDDCQDVA
Procedure: as §1, §2, §3

[8] = target: T8, Peptide_031
T8 peptide: ALDAAGDKLVVVDFS
Procedure: as §1, §2, §3

[9] = target: T9, Peptide_104
T9 peptide: GEFSGANKEKLEATI
Procedure: as §1, §2, §3

[10] = target: T10, Peptide_100
T10 peptide: GQKVGEFSGANKEKL
Procedure: as §1, §2, §3

[11] = target: T11, Peptide_080
T11 peptide: QDVASECEVKCMPTF
Procedure: as §1, §2, §3

[12] = target: T12, Peptide_036
T12 peptide: GDKLVVVDFSATWCG
Procedure: as §1, §2, §3

[13] = target: T13, Peptide_032
T13 peptide: LDAAGDKLVVVDFSA
Procedure: as §1, §2, §3

[14] = target: T14, Peptide_041
T14 peptide: VVDFSATWCGPCKMI
Procedure: as §1, §2, §3

[15] = target: T15, Peptide_102
T15 peptide: KVGEFSGANKEKLEA
Procedure: as §1, §2, §3

[16] = target: T16, Peptide_029
T16 peptide: QEALDAAGDKLVVVD
Procedure: as §1, §2, §3

[17] = target: T17, Peptide_004 (human)
T17 construct: 15-mer on microarray; not native form, recombinant insert region
T17 peptide: AADVHSQHHHHHHHH
Procedure: as §1, §2, §3

[18] = target: T18, Peptide_028
T18 peptide: FQEALDAAGDKLVVV
Procedure: as §1, §2, §3

[19] = target: T19, Peptide_059
T19 peptide: FHSLSEKYSNVIFLE
Procedure: as §1, §2, §3

[20] = target: T20, Peptide_087
T20 peptide: EVKCMPTFQFFKKGQ
Procedure: as §1, §2, §3

[21] = target: T21, Peptide_026
T21 peptide: TAFQEALDAAGDKLV
Procedure: as §1, §2, §3

[22] = target: T22, Peptide_071
T22 construct: also called FLEVDVDDCQDVASE
T22 peptide: FLEVDVDDCQDVASE
Procedure: as §1, §2, §3

[23] = target: T23, Peptide_105
T23 construct: also called EFSGANKEKLEATIN
T23 peptide: EFSGANKEKLEATIN
Procedure: as §1, §2, §3

[24] = target: T24, Peptide_076
T24 peptide: VDDCQDVASECEVKC
Procedure: as §1, §2, §3

[25] = target: T25, Peptide_066
T25 peptide: YSNVIFLEVDVDDCQ
Procedure: as §1, §2, §3

[26] = target: T26, Peptide_090
T26 peptide: CMPTFQFFKKGQKVG
Procedure: as §1, §2, §3

[27] = target: T27, Peptide_016
T27 peptide: HHHVKQIESKTAFQE
Procedure: as §1, §2, §3

[28] = target: T28, Peptide_008
T28 peptide: HSQHHHHHHHHVKQI
Procedure: as §1, §2, §3

B1: monoclonal antibody B264 (antibody, mouse IgG1, kappa, V domains shown)
VH: QVQLQQSGAELARPGASVKMSCKASGYTFTSYTMHWVKQRPGQGLEWIGYINPTSDYTNYNQKFKDKATLTADKSSSTAYMQLSSLTSEDSAVYFCASEGGFLYYFDYWGQGTTLTVSS
VL: DVLMTQTPLSLPVSLGDQASISCRSSQSIVHSNGNTYLEWYLQKPGQSPKLLIYKVSNRFSGVPDRFSGSGSGTDFTLKISRVEAEDLGVYYCFQGSHVPYTFGGGTKLEIKR
notes: also called AB264; B264 (Trx1-mIgG1)
binding result [1]: no binding (tested: 5 ug/mL) | binding result [2]: no binding (tested: 5 ug/mL) | binding result [3]: binds | binding result [4]: no binding (tested: 5 ug/mL) | binding result [5]: no binding (tested: 5 ug/mL) | binding result [6]: no binding (tested: 5 ug/mL) | binding result [7]: no binding (tested: 5 ug/mL) | binding result [8]: no binding (tested: 5 ug/mL) | binding result [9]: no binding (tested: 5 ug/mL) | binding result [10]: no binding (tested: 5 ug/mL) | binding result [11]: no binding (tested: 5 ug/mL) | binding result [12]: no binding (tested: 5 ug/mL) | binding result [13]: no binding (tested: 5 ug/mL) | binding result [14]: no binding (tested: 5 ug/mL) | binding result [15]: no binding (tested: 5 ug/mL) | binding result [16]: no binding (tested: 5 ug/mL) | binding result [17]: no binding (tested: 5 ug/mL) | binding result [18]: no binding (tested: 5 ug/mL) | binding result [19]: no binding (tested: 5 ug/mL) | binding result [20]: no binding (tested: 5 ug/mL) | binding result [21]: no binding (tested: 5 ug/mL) | binding result [22]: no binding (tested: 5 ug/mL) | binding result [23]: no binding (tested: 5 ug/mL) | binding result [24]: no binding (tested: 5 ug/mL) | binding result [25]: no binding (tested: 5 ug/mL) | binding result [26]: no binding (tested: 5 ug/mL) | binding result [27]: binds | binding result [28]: no binding (tested: 5 ug/mL)
